Assay results as given in paper PMC10027727, “Structure and dynamics of the Arabidopsis O-fucosyltransferase SPINDLY” (Nature Communications, 2023).

Columns and labels:
[1] = target: the molecule itself; assay: cryo-EM structure; apo SPY, ~0.8 mg/mL, 25 mM HEPES pH 7.5, 150 mM NaCl, 2 mM DTT; three conformations of the dimer at 3.6 to 3.9 Å
[2] = target: the molecule itself; assay: cryo-EM 2D class averages; apo SPY, flash-frozen solution; tetramer formed by side-by-side stacking of two SPY dimers
[3] = target: T1, Myc-spy Δ216 (deletion of residues 1-216, the N-terminal peptide and TPRs 1-5) (Arabidopsis thaliana, UniProt Q96301 217-914); assay: co-IP; FLAG-RGA co-expressed with Myc-SPY, Myc-spy mutants or Myc-GUS in N. benthamiana; IP with anti-cMyc agarose, blots with αMyc and αFLAG; co-IP'ed FLAG-RGA normalised to the IP'ed Myc protein, WT SPY set as 1; settings: partners not purified
T1 construct: source: N. benthamiana, transient expression by agroinfiltration, in protein extract
T1 sequence (looked up): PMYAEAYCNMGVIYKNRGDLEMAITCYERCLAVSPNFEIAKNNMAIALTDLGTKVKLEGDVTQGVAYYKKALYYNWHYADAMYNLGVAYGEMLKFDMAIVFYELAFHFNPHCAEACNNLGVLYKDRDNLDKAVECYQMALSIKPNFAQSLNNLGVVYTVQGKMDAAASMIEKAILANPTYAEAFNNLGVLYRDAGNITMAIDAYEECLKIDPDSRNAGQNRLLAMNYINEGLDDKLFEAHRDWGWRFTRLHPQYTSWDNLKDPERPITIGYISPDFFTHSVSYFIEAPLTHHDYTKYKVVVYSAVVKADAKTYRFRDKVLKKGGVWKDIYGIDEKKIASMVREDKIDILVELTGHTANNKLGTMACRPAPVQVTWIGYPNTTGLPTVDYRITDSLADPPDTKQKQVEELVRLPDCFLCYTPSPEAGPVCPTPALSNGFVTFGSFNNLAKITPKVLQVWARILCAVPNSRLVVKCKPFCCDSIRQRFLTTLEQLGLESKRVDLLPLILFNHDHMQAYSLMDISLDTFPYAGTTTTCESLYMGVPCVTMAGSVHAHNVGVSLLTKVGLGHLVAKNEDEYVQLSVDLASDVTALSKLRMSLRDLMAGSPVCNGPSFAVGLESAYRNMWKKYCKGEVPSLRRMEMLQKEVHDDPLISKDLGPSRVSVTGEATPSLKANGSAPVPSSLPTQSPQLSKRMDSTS

B1: Recombinant full-length Arabidopsis thaliana SPINDLY (SPY-WT-TEV-His10-Strep) (enzyme, UniProt Q96301 1-914, looked up)
chain: MVGLEDDTERERSPVVENGFSNGSRSSSSSAGVLSPSRKVTQGNDTLSYANILRARNKFADALALYEAMLEKDSKNVEAHIGKGICLQTQNKGNLAFDCFSEAIRLDPHNACALTHCGILHKEEGRLVEAAESYQKALMADASYKPAAECLAIVLTDLGTSLKLAGNTQEGIQKYYEALKIDPHYAPAYYNLGVVYSEMMQYDNALSCYEKAALERPMYAEAYCNMGVIYKNRGDLEMAITCYERCLAVSPNFEIAKNNMAIALTDLGTKVKLEGDVTQGVAYYKKALYYNWHYADAMYNLGVAYGEMLKFDMAIVFYELAFHFNPHCAEACNNLGVLYKDRDNLDKAVECYQMALSIKPNFAQSLNNLGVVYTVQGKMDAAASMIEKAILANPTYAEAFNNLGVLYRDAGNITMAIDAYEECLKIDPDSRNAGQNRLLAMNYINEGLDDKLFEAHRDWGWRFTRLHPQYTSWDNLKDPERPITIGYISPDFFTHSVSYFIEAPLTHHDYTKYKVVVYSAVVKADAKTYRFRDKVLKKGGVWKDIYGIDEKKIASMVREDKIDILVELTGHTANNKLGTMACRPAPVQVTWIGYPNTTGLPTVDYRITDSLADPPDTKQKQVEELVRLPDCFLCYTPSPEAGPVCPTPALSNGFVTFGSFNNLAKITPKVLQVWARILCAVPNSRLVVKCKPFCCDSIRQRFLTTLEQLGLESKRVDLLPLILFNHDHMQAYSLMDISLDTFPYAGTTTTCESLYMGVPCVTMAGSVHAHNVGVSLLTKVGLGHLVAKNEDEYVQLSVDLASDVTALSKLRMSLRDLMAGSPVCNGPSFAVGLESAYRNMWKKYCKGEVPSLRRMEMLQKEVHDDPLISKDLGPSRVSVTGEATPSLKANGSAPVPSSLPTQSPQLSKRMDSTS
modifications: fully auto-O-fucosylated (sites not mapped for the insect-cell protein)
notes: SPINDLY (SPY), Arabidopsis thaliana, full length (101.4 kDa), UniProt Q96301; The tag end is read from the construct name SPY-WT-TEV-His10-Strep; A TEV site lies between SPY and the tags; no cleavage is described; also called WT SPY; apo SPY; source: Trichoplusia ni (High Five) insect cells, baculovirus, purified (Talon, Strep-Tactin, SEC)
stoichiometry N [1]: 2
stoichiometry N [2]: 4

B2: FLAG-RGA (35S:FLAG-RGA, pEG100-3xFR; contains a 6xHis-3xFLAG tag) (natural protein, Arabidopsis, UniProt Q9SLH3 1-587, looked up)
chain: MKRDHHQFQGRLSNHGTSSSSSSISKDKMMMVKKEEDGGGNMDDELLAVLGYKVRSSEMAEVALKLEQLETMMSNVQEDGLSHLATDTVHYNPSELYSWLDNMLSELNPPPLPASSNGLDPVLPSPEICGFPASDYDLKVIPGNAIYQFPAIDSSSSSNNQNKRLKSCSSPDSMVTSTSTGTQIGGVIGTTVTTTTTTTTAAGESTRSVILVDSQENGVRLVHALMACAEAIQQNNLTLAEALVKQIGCLAVSQAGAMRKVATYFAEALARRIYRLSPPQNQIDHCLSDTLQMHFYETCPYLKFAHFTANQAILEAFEGKKRVHVIDFSMNQGLQWPALMQALALREGGPPTFRLTGIGPPAPDNSDHLHEVGCKLAQLAEAIHVEFEYRGFVANSLADLDASMLELRPSDTEAVAVNSVFELHKLLGRPGGIEKVLGVVKQIKPVIFTVVEQESNHNGPVFLDRFTESLHYYSTLFDSLEGVPNSQDKVMSEVYLGKQICNLVACEGPDRVERHETLSQWGNRFGSSGLAPAHLGSNAFKQASMLLSVFNSGQGYRVEESNGCLMLGWHTRPLITTSAWKLSTAAY
notes: RGA, an Arabidopsis DELLA protein; called the full-length RGA substrate in planta; RGA is O-fucosylated by the co-expressed SPY to differing degrees; also called His-FLAG-RGA; source: N. benthamiana, transient expression by agroinfiltration, in protein extract
fold change of co-IP'ed FLAG-RGA against WT SPY [3]: 6.3 fold
